The text below walks through data of PMC7979937, “Crystal structures of human MGST2 reveal synchronized conformational changes regulating catalysis” (Nature Communications, 2021).

The series concerns the molecule itself. The experiment in a line: crystal structure; crystals grown in lipidic cubic phase (8.8 MAG for apo, 9.9 MAG for GSH and GSO3- complexes), protein at 30 mg/ml, 20 °C; apo, with 7 mM GSH, with 7 mM GSO3-; homo-trimer.

B1: Microsomal glutathione S-transferase 2 (human) (enzyme)
chain: not shown
notes: Microsomal glutathione S-transferase 2 (MGST2), human; cDNA from IMAGE clone 5277851 cloned in pPICZA; Integral membrane protein, homo-trimer in the crystals; The terminal ends are disordered in the crystal structures; also called MGST2; apo-MGST2; source: Pichia pastoris KM71H, purified (Ni-Sepharose, S-hexylglutathione agarose, SEC) in DDM
A word on the stoichiometry N: it is the number of molecules, sites or subunits per partner or assembly. As for B1, the “stoichiometry N” value stood at 3.
